The target of assay [1] is T1, NdmB (wild-type theobromine N3-demethylase) (UniProt H9N290).
T1 sequence (looked up): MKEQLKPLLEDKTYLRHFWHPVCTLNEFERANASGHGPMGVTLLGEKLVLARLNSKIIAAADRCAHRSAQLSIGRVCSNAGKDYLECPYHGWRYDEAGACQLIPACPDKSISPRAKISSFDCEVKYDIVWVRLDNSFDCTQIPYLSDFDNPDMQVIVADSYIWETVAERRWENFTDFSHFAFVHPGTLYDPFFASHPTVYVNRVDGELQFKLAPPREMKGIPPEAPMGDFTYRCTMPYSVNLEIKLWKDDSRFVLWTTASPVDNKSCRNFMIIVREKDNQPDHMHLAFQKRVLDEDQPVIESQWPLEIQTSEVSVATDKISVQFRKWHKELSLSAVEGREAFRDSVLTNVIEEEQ
The experiment in a line: cell-based or functional assay.

Assay [2] deals with T2, NdmA (wild-type caffeine N1-demethylase) (UniProt H9N289).
T2 sequence (looked up): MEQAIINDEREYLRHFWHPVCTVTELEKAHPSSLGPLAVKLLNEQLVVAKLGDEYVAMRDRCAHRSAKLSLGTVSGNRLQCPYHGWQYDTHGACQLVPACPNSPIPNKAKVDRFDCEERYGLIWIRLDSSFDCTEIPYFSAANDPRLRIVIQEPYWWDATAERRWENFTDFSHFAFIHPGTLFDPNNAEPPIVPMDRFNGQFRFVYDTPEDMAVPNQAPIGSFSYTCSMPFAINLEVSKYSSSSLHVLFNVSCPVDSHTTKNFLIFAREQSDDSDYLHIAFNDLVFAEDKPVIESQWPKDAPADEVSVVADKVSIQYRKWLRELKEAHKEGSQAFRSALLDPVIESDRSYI
The experiment in a line: cell-based or functional assay.

Substitutions are numbered along the chain they refer to. Names and notes keep the numbering of the source.

B1: NdmD V541W mutant (NdmDW) (enzyme, UniProt H9N291 1-588, looked up)
chain: MNKLDVNQWFPIATTEDLPKRHVFHATLLGQEMAIWRDDSGSVNAWENRCPHRGLRLTLGANTGNELRCQYHGWTYESGTGGCTFVPAHRDAPPPNAARVNTFPVREKHGFIWTTLGQPPGEPISILDDAQLVNAVKTNLHSVVIDADIDGVVSVLRQNLSAFIDVFGAASAEDLHLKSMLQDRGILVTRSGSIAIHFYMQRSTISKCVVHAQVLTPGRPGYELQKNYSYAMNVIRRAAEAVATDLISITDISDQTIEKLEVVRENMTKAPPTHYICEVVTRTQETGDINSYWLKPIGYPLPAFSPGMHISITTPEGSIRQYSLVNGPDERESFIIGVKKEIQSRGGSRSMHEDVKVGTQLKVTLPRNGFPLVQTRKHPILVAGGIGITPILCMAQALDQQGSSYEIHYFARAFEHVPFQDRLTALGDRLNVHLGLGPDETRAKLPDIMEIHNAQDVDVYTCGPQPMIETVSAVALAHGIAEESIRFEFFSKKNDVPVSDEEYEVELKKTGQIFTVSPGSTLLQACLDNDVRIEASCEQGWCGTCITPVVSGDLEHHDTYLSKKERESGKWIMPCVSRCKSKKIVLDL
Take B1: in assay [1], the N3-demethylase activity in NdmB cells, reduction was 36 % reduced and the remaining N-demethylase activity in the in vivo assays (% of the wild-type enzyme) is above 60. In assay [2], the N1-demethylase activity in NdmA cells, lower than in cells with the wild type reductase was found to be 7 % lower and the remaining N-demethylase activity in the in vivo assays (% of the wild-type enzyme) was above 60.

B2: NdmD V541R mutant (NdmDR) (enzyme, UniProt H9N291 1-588, looked up)
chain: B1 chain with W541R
B2: in assay [1], the N3-demethylase activity in NdmB cells, reduction came out at 20 % reduced and the remaining N-demethylase activity in the in vivo assays (% of the wild-type enzyme) was above 60. In addition, in assay [2], the N1-demethylase activity in NdmA cells, lower than in cells with the wild type reductase was found to be 30 % lower and the remaining N-demethylase activity in the in vivo assays (% of the wild-type enzyme) is above 60.

(Values after US20230193332A1.)
